This is an account of results in the DeepSol protein solubility set.

The nature of this data set: soluble on expression in E. coli; label from the status in PepcDB or PDB records.
On to “MDLFKIEANYIDIFNKEIYPASIAIANGHIASIEKINATLDEYVLPGFIDAHIHIESSFLVPSNFAHLVVAHGTVATISDPHEIANVNGIDGINFMINNSKKTEFKFFFGAPSCVPALSQEFETSGYVLNDKDIDELMKLDDIYYLAEVMDFKGVINKDIEIINKINSALKRNKVVDGHAPGLSPNLTLKYASSGISTDHECLTIEDARYKLSLGMKILIREGSAAKNFESLHPLISECSKKYCDSLMFCFDDAHPNDILNGHINLIVARAIKHGHDFFDVLKIACINPVLHYKIPVGLLRIGDPADFIITKDIKTFKINKTYINGKLVFNDGISLIPLINEIPINNFNCSKKSISDFKFSTKNKMIPVIKCISNQIITHKTMIDSNLLAPDFQSNIAEDILKIAIINRYKDNSKISIGFIKNFGIRNGAIGSTVAHDSHNIILVGSNDEYLCKAANTIIQNKGGLCALNNEKTIIMELPISGLMSTLSAERVASQYIKLNDFCKNVLGSRLDDPLMTLSFMSLTVVPHLKINDKGLFDVDSFCFVDYLEHHHHHH”, for which the “soluble on expression in E. coli” value is “not soluble”.

Consider “RMNLKEAAKKAENKSDFVNHVLPHYCNIMFGLIETRSAFLHEKSNFFEGFLTKEGLINEDRFAPMFGIYGMAEAVDILMEKEGIEAKYGHDEIANQLGHAISKQLSEIVDATDVKYGYHGKALLHAQGGISLDIDVTPGVRIPYGTEPDPVSYVQATVGHHQYYTSGISDILTIDETVKSNPEAMFNLAKGALQLGYREFTANVASNDLVRITGYMVKLSDIAKYDAEGSRTNTTFL”, for which the “soluble on expression in E. coli” value is reported as “not soluble”.

Regarding “MTNKEKPIKHLVIDTCAIIANRNLHALADHYYAPPQILDELRSSAARKLWNTLPFEVTLREPTQTALRAVIDASKTTGDFQSLSMVDIKMIALTYDLHRQYVAENDVAETTEDDEKKNIEDLSAKVEQVTVGENTEDTKEEEIEENEESEDSAVSEGSESSESSESFDEDGWITQDNIEETLKKLGAFEIEENMLVGCLTTDFALQNVLLAMNLSLVSLSGYRIRKLKSFVLRCRTCFSTTSVMTKEFCPACGHKTLHKCAVSVDEDGNQQLHINWNRMANRRGLVYTLANPKGGKHATNERLFEDQPMPHMRMAKIHMDPLADGPFSVHDVTSRSAMLGVRTINNRAKQNRNPNESKRGGRRK”, the “soluble on expression in E. coli” value was “not soluble”.

For the sequence “MELLSIQNLTKVYKVPAGFLRKKNFFALKEVSLSIKQGDFLAIVGESGSGKSTLGKIILRLEKPTKGKVSFKGKDIFSMGKEYTRKVSAVFQDPRSSLNPRMKVEEILEEPLIVHRVKGRKERVLKVLQRVRLSEELLEKRPLQISGGQAQRVAIARALILEPELIVADEPTASLDVSVQEEILELFKELNSKGISFFFVTHDIRVVEKVANMVGVIYAGILMELGKKEEVLKNPLHPYTKFLLENVPVRHPKDRKPLKYLQEEEVSIPEEGCPFYPRCPEAMEECKKFIRRSEVNGRLLACNLY”, the “soluble on expression in E. coli” value is listed as “soluble”.

Turning to “MAHHHHHHMLLSDAEAKITAVLKSLLDTPRTTYEVENLYQLNCERIAAVRAALADMSGDYVDQLCERCGEAEKQVQAKRAAGVASTAAADNAFSLDFALEEAEGQNEAEIESAISAAAHGSRRPKKSSGKEKSKKKEGEERHKKKEKRTLDDEPLVAPLPAGGGSCENNAADKATSSPSTRWVVLSRDDDLTSSEVLPALSTSDRVKCEAVPNTPLARVFFTEEVTRDGASCQCAVELYRCVVIAMRYGEPQLSWAECEKMMQSQVAAASKAGTIEDEGFDSRSAKRAGARSPKTSSDGDGEGAEDDSTSLVEEMTLSEQLIAQYDQAQQAEEEEEDADTLTLPRDISERFQQRLHGFTDEVWVILLCHGGYFAGGVFARGTCITHKAFQRYVVRKKQGGKQSSNAKDAGSYNSVGSQIRAVQEVKWRVDVRDILLDWMPYIQAASFILYAAPGPQNRAVLTDFSLLPAVASVGGRKGVSPIQLKDPRVSRVPLTTHRPTFEEVRRIYGVCSRCSLLYVRQEEAQERNTN”, the “soluble on expression in E. coli” value is on record as “not soluble”.

Turning to “MRLLVTGGAGFIGSHFVRQLLAGAYPDVPADEVIVLDSLTYAGNRANLAPVDADPRLRFVHGDIRDAGLLARELRGVDAIVHFAAESHVDRSIAGASVFTETNVQGTQTLLQCAVDAGVGRVVHVSTNQVYGSIDSGSWTESSPLEPNSPYAASKAGSDLVARAYHRTYGLDVRITRCCNNYGPYQHPEKLIPLFVTNLLDGGTLPLYGDGANVREWVHTDDHCRGIALVLAGGRAGEIYHIGGGLELTNRELTGILLDSLGADWSSVRKVADRKGHDLRYSLDGGKIERELGYRPQVSFADGLARTVRWYRENRGWWEPLKATAPQLPATAVEVSA”, the “soluble on expression in E. coli” value is listed as “soluble”.

Take “MNKFIAAEAAECIGCHACEIACAVAHNQENWPLSHSDFRPRIHVVGKGQAANPVACHHCNNAPCVTACPVNALTFQSDSVQLDEQKCIGCKRCAIACPFGVVEMVDTIAQKCDLCNQRSSGTQACIEVCPTQALRLMDDKGLQQIKVARQRKTAAGKASSDAQPSRSAALLPVNSRKGADKISASERKTHFGEIYCGLDPQQATYESDRCVYCAEKANCNWHCPLHNAIPDYIRLVQEGKIIEAAELCHQTSSLPEICGRVCPQDRLCEGACTLKDHSGAVSIGNLERYITDTALAMGWRPDVSKVVPRSEKVAVIGAGPAGLGCADILARAGVQVDVFDRHPEIGGMLTFGIPPFKLDKTVLSQRREIFTAMGIDFHLNCEIGRDITFSDLTSEYDAVFIGVGTYGMMRADLPHEDAPGVIQALPFLTAHTRQLMGLPESEEYPLTDVEGKRVVVLGGGDTTMDCLRTSIRLNAASVTCAYRRDEVSMPGSRKEVVNAREEGVEFQFNVQPQYIACDEDGRLTAVGLIRTAMGEPGPDGRRRPRPVAGSEFELPADVLIMAFGFQAHAMPWLQGSGIKLDKWGLIQTGDVGYLPTQTHLKKVFAGGDAVHGADLVVTAMAAGRQAARDMLTLFDTKAS”: the “soluble on expression in E. coli” value is “not soluble”.

On to “MTAQTTHTVDAVVIGAGFGGIYAVHKLHHELGLTTVGFDKADGPGGTWYWNRYPGALSDTESHLYRFSFDRDLLQESTWKTTYITQPEILEYLEDVVDRFDLRRHFKFGTEVTSALYLDDENLWEVTTDHGEVYRAKYVVNAVGLLSAINFPNLPGLDTFEGETIHTAAWPEGKSLAGRRVGVIGTGSTGQQVITSLAPEVEHLTVFVRTPQYSVPVGNRPVNPEQIAEIKADYDRIWERAKNSAVAFGFEESTLPAMSVSEEERNRIFQEAWDHGGGFRFMFGTFGDIATDEAANEAAASFIRAKVAEIIEDPETARKLMPKGLFAKRPLCDSGYYEVYNRPNVEAVAIKENPIREVTAKGVVTEDGVLHELDVLVFATGFDAVDGNYRRIEIRGRDGLHINDHWDGQPTSYLGVSTANFPNWFMVLGPNGPFTNLPPSIETQVEWISDTIGYAERNGVRAIEPTPEAEAEWTETCTEIANATLFTKGDSWIFGANIPGKKPSVLFYLGGLRNYRAVMAEVAADGYRGFEVKSAEMVTV”, for which the “soluble on expression in E. coli” value is given as “soluble”.

Take “MPLGLFSSGKAQVLCDEKIPGGKKKEPKQLSENKCKGVTLKLDHTRVTIEKQIAEGGFAIVYVASDRKNNKFALKRQFTKDNEKQLEACCREHSFLKQCIGHKNIVEFVDSYTNCLGNGIWECMLLTEYHQKNVLQLMNERISQNQYLTNDEILSIFTDLCEAVSFIHNRPQPIIHRDLKVENVLISSHKPPHYVLCDFGSATTQILSVEKYGVEYVKSEVERNTTMCYRSPEMIDFYSGLEIGLKSDIWALGVLLYRLCFFCVPFEESPLAIQSVNYQFPSVPNIPDEIKVLIYMLLDIDVNRRPSIYQTSVLAFEANHRKPLSEEIQNKKCTDAVPSLKSCIQLMRDGSNPRNKRDSSPRNPEAPPIQSSSKMASLSQQVPSISNISMPSGSGTVETSVAPRLRPKATTVVPNVPSISPVPPVGLPHLRLPSKGSTDETDGSQVRKVPIDFHHRQSFSGEEQLKPAAEADSAGPLSCPLIKPTDLGFTDLDKPALPRDRAQTDGKRRLPHESDIIFQQQHRRNVSDTSQISRSAFKPYSSQQTTSKTSSQVVRSVEDMSQRQNGGSGEWNPFLVAPFSNNSISRKDGQESAFMMDDSHFGMVFDEIRRKEIPAELDSETSSIDSRDPFGAAPFDQLTVSTSSSAQPVSLPPATDEDDERQLLSETDEEEKYEIDEKEEIQTKKDETINEEDSEIDEQRMNDRRRYSYENIDGVGDDASSDSRGKTDRDDSEEEEDDDSRRGGDTSHDEDSQNTVGSEDGEGGSRPLLEDDGLEDDDDHELISSFSSSSTNYPPLFIGTSTPHTQNPITNPFLRDELTPKMIITAPLPTAKNNLDDDWDLGDRWTDRRDTVFERPASEHQNVFAPATLPRQATPLVCRFKPDLPTAAPVSIIPSMSNTSFPEAVRDSDTVPCEPIIGTLISVGAPTDPPPPPLPKKPTEASPTQETTATIPVALGKKEKLLKKEKKKEKKDGKKDKLKLEEYREKGSSEPETDGSEAEIWTNDGATTFSNKKKKKSTFGLRSSHPSIVANDLQFSSPMPPVVKKSSKDKKSSLTGKNASFVNTSFQPEDHDDPTDL”: the “soluble on expression in E. coli” value is reported as “soluble”.

In the case of “MGSDKIHHHHHHMTKEFTPILLGSDINVYGMARSFNEAYGIRVKALADVQLAATRYSKIVDVELHHGFSADPTFMDVMRKKMEIYKDHKEPVILIACGDGYAELLSKHKDELSKVFIVPYIEYDLLEKLISKEGFYEVAEEYGLPYPKTKIITMDDYKSGKYKDVPFQFPVELKPEDPVSWLNCQFEGRKKTFTLHDENEFEDIVTKIYTHGYTEDLILQDFIPGDDSNMRTLNAYVDKNHQVKMMCLGHPLLEDPTPQSIGNYMTILPAYDEKLYEQVQSFLEKLNYTGMANFDIKYDERDGQYKFFEINLRQGRSSFYVTLNGYNLAKWYIDDYVEDNLSDKKTVYGNKLKSKHVLWMGVPVKIFKEYAFENEAKDTAEELIHEGRYGTTVFYDKDRSLKRWLLMKYMFHNYFARYKKYYEVNKGQYFKKNK”, the “soluble on expression in E. coli” value is “not soluble”.

With “MGSDKIHHHHHHMKEHEVVGIDRTPCSTADVVGDIRDTALLAEALEGVEVIIHTAALHAPHVGLVPGDEFEEINIKATEQLALMGVKKGIKHFVFTSTTALYGFASTPAGRAGWVDETVMPRPKTIYHHSKIKAEQLLENISSSFDLPVTVLQMSRCFPEPVNLMAVYRLTRGIDARDVARAHACAVERRLSGFRRYIISGKTPFSKACCERLYRDANDVIREAIPGLAESFAVRGWSMPQSLDRVYDSSLAQHELGWQPKYGYESVLSLLDNESAEVLPMKSQS”, the “soluble on expression in E. coli” value is “not soluble”.

With “MGLIVDDDNDGEVLIPPPNFSMVEDEIYRSGFPELENFGFLSTLNLRSIIYLCPEPYPEDNLKSLASNNIKLFQFGIEGKTDPPTPMPKDTVLSALRVLVDVRNHPILIHCKRGKHRTGCLVGCLRKVQNWCLSSVLEEYQKCAGLKWRQRDLRFIEDFDVLRLKQCLYSIIYQYNGYGLKRRKLLYQEENVVQEQQKPQATKG”, the “soluble on expression in E. coli” value was “soluble”.

In the case of “MGSDKIHHHHHHMEQSMRKKNNNQINIVLNHRKKISLPAAENKTVISSETTTKHEMLQRIEEEMGKLVGMDDIKKIIKEIYAWIYVNKKRQEIGLKSEKQVLHMLFKGNPGTGKTTVARMIGKLLFEMNILSKGHLVEAERADLVGEYIGHTAQKTRDLIKKAMGGILFIDEAYSLARGGEKDFGKEAIDTLVKHMEDKQHGFVLILAGYSREMNHFLSLNPGLQSRFPFIIEFADYSVNQLLEIGKRMYEEREYQLSKEAEWKFRDHLHAVKYSSQITSFSNGRYVRNIVEKSIRTQAMRLLQEDAYDKYDLIGISSSDLMLEEETHST”, the “soluble on expression in E. coli” value is listed as “not soluble”.

Consider “MSLKKYQLVIVGYGGMGSYHVTLASAADNLEVHGVFDILAEKREAAAQKGLKIYESYEAVLADEKVDAVLIATPNDSHKELAISALEAGKHVVCEKPVTMTSEDLLAIMDVAKRVNKHFMVHQNRRWDEDFLIIKEMFEQKTIGEMFHLESRVHGANGIPGDWRHLKAHGGGMVLDWGVHLLDQLLFLVDSNVKSVSANLSFALGDEVDDGFVTFITFENGITAQIEVGTTNFIKLPRWYVKGTEGTGIIHDWDLSGEIVKPTALAKTSEPTPIKAGQGLTKTMAPPSEEATNTLSLPAPAKLAPSFYNNFVDVLNNTSEPIVQNEEVYQVLKLIEAIFEAAETNRTVHSIEGHHHHHH”, for which the “soluble on expression in E. coli” value is “soluble”.
